± gives the standard deviation of the averaged measurements.
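Further: ATP exposure 15 min at 22 °C before imaging.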

The data set relates to ATP. Kind of data set: switch fluorescence ratio, 500 uM ATP over buffer (Cy3 cluster intensity, sum of 5 cycles each) (fold (ratio)); higher = stronger signal-on switching upon ATP binding; sequences stand for … in TCGTCGGCAGCGTCAGATGTGTATAAGAGACAGTTTTTTTTTTTTTTTTTTTTTTTTT…TC. Particulars: aptamer strand: ATP DNA aptamer (quencher-CACCTGGGGGAGTATTGCGGAGGAAGG + anchor), 100 nM annealed; ATP concentration: 500 uM. The method, boiled down: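 Between each of five buffer/ATP cycles, the flow-cell was stripped with NaOH and re-annealed. Each cycle imaged Cy3-labelled switching-strand clusters, annealed to 100 nM quencher-labelled ATP aptamer on a modified Illumina MiSeq flow-cell, first in selection buffer and then after 15 min with 500 uM ATP at 22 °C. The fluorescence ratio is summed target-cycle over summed buffer-cycle Cy3 intensity per cluster, averaged per switch-domain sequence, with clusters outside 100-1000 RFU excluded.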
Turning to GAGTAACTGT, the switch fluorescence ratio turned out to be 0.966 ± 0.016.

On to TTAGGGGTGG, for which the switch fluorescence ratio is 0.996 ± 0.032.

Turning to GCTATGGAGC, the switch fluorescence ratio was 1.06 ± 0.079.

For the sequence CTGCATGGTT, the switch fluorescence ratio stood at 1.01 ± 0.016.

Turning to GGTAAATATT, the switch fluorescence ratio was found to be 0.9981 ± 0.0046.

For the sequence TCAGGTAGTG, the switch fluorescence ratio stood at 0.9875 ± 0.0078.

As to ACGACTTAGG, the switch fluorescence ratio came to 1.07 ± 0.017.

As for TTTTCTAAAT, the switch fluorescence ratio was 1.04 ± 0.076.

TCGTAGGCCT: the switch fluorescence ratio came to 0.981 ± 0.061.

For the sequence TTCGAGACTT, the switch fluorescence ratio was 1.05 ± 0.055.

On to TGGGTGGCAA, for which the switch fluorescence ratio was determined as 1.03 ± 0.05.

For the sequence CAAGAATGCG, the switch fluorescence ratio came to 1 ± 0.034.

For the sequence CAGAGGGACT, the switch fluorescence ratio is 1.01 ± 0.023.

Take ACTAATAAGG: the switch fluorescence ratio was found to be 1.04 ± 0.029.

In the case of TGCAAGTTCG, the switch fluorescence ratio amounted to 0.9694 ± 0.0095.

For TTGGTTATGG, the switch fluorescence ratio is 1 ± 0.039.

As to TCGAGTAAGG, the switch fluorescence ratio worked out at 1.18 ± 0.28.

As to ATAGAGGAGA, the switch fluorescence ratio stood at 0.992 ± 0.048.

TCATCTGCTG: the switch fluorescence ratio was determined as 1.17 ± 0.087.

For the sequence AGCTGGGTTT, the switch fluorescence ratio turned out to be 1 ± 0.021.

ATTAAAGGTC: the switch fluorescence ratio was 1 ± 0.02.

Take TTTTTTCCTT: the switch fluorescence ratio stood at 1.01 ± 0.034.

For CTTTATGGGG, the switch fluorescence ratio turned out to be 0.974 ± 0.029.

On to CATTCTCAAT, for which the switch fluorescence ratio worked out at 1.17 ± 0.056.

For the sequence CCTGTGTGAC, the switch fluorescence ratio was found to be 1.344 ± 0.013.

For TGGTGTTTGT, the switch fluorescence ratio was found to be 0.983 ± 0.029.

Turning to TTCCTGAGGG, the switch fluorescence ratio was 1.11 ± 0.058.

Regarding AAGGGCTCGG, the switch fluorescence ratio is 1.07 ± 0.14.

Regarding TCCTTTAATG, the switch fluorescence ratio amounted to 0.9917 ± 0.0073.

Turning to TGGGAAACGT, the switch fluorescence ratio was 1.09 ± 0.027.

For the sequence ACTTTGAGTG, the switch fluorescence ratio worked out at 0.976 ± 0.015.

In the case of AGTGGTTTAT, the switch fluorescence ratio turned out to be 0.985 ± 0.014.

As to TCATCAGCAG, the switch fluorescence ratio amounted to 2.96 ± 1.7.

Take AATTTGGCGT: the switch fluorescence ratio amounted to 0.968 ± 0.011.

As to ATAAAAATCG, the switch fluorescence ratio came to 0.989 ± 0.027.

In the case of AATGTAAAAC, the switch fluorescence ratio came to 1.06 ± 0.066.

TTGGTTCTCT: the switch fluorescence ratio came to 1.01 ± 0.011.

Take GTATCCGGGA: the switch fluorescence ratio stood at 1.02 ± 0.057.

For the sequence ATGTGTGAAA, the switch fluorescence ratio amounted to 1 ± 0.073.

Take TACGGTAGCC: the switch fluorescence ratio turned out to be 1.043 ± 0.0061.

For the sequence GAGGAAGTCG, the switch fluorescence ratio amounted to 0.9961 ± 0.0055.

As to AGCTTTATTA, the switch fluorescence ratio is 0.9984 ± 0.0032.

With GGTAGGAGCT, the switch fluorescence ratio stood at 1.02 ± 0.058.

On to CGGAGGTAGC, for which the switch fluorescence ratio was determined as 1.03 ± 0.058.

For the sequence TTGTTTGGTG, the switch fluorescence ratio stood at 0.932 ± 0.014.

GGTATAGGCT: the switch fluorescence ratio came out at 0.996 ± 0.014.

Turning to GATTGTAAGA, the switch fluorescence ratio came to 1.16 ± 0.2.

On to GCATGTGTAT, for which the switch fluorescence ratio came to 1.01 ± 0.031.

With TATTTGTAAT, the switch fluorescence ratio turned out to be 1.03 ± 0.02.

Take CGCGATGGCG: the switch fluorescence ratio came to 0.98 ± 0.017.

Take TGGGGGAGCG: the switch fluorescence ratio stood at 0.99 ± 0.019.

In the case of TTGAAATATT, the switch fluorescence ratio was 1.02 ± 0.013.

For AAATAAAGCT, the switch fluorescence ratio amounted to 1.07 ± 0.073.

With AGACATGTTT, the switch fluorescence ratio came to 0.981 ± 0.014.

CGGAAAGGGA: the switch fluorescence ratio worked out at 1.01 ± 0.022.

Take GAGTGGGGGT: the switch fluorescence ratio is 0.977 ± 0.032.

For CCGCCAGGTC, the switch fluorescence ratio is 2.55 ± 0.13.

Consider AAAGAAAGAT, for which the switch fluorescence ratio is 1.08 ± 0.17.

In the case of AATACCTTTC, the switch fluorescence ratio was 2.3 ± 0.14.

Turning to CTTTCGGGCT, the switch fluorescence ratio is 1.01 ± 0.026.

Turning to TTATGCTTTC, the switch fluorescence ratio amounted to 1.25 ± 0.34.

For the sequence AGAAATTGGT, the switch fluorescence ratio came out at 1.02 ± 0.029.

As to TAGGGGAAGC, the switch fluorescence ratio turned out to be 0.989 ± 0.031.

Take CCTGAGGGAC: the switch fluorescence ratio was 0.99 ± 0.03.

On to GAGATAGCTT, for which the switch fluorescence ratio stood at 0.955 ± 0.043.

Take AATCGGCGGG: the switch fluorescence ratio stood at 0.975 ± 0.022.

On to ACTGAAGCAT, for which the switch fluorescence ratio was 1.17 ± 0.021.

In the case of TCCCAAATTT, the switch fluorescence ratio was 0.983 ± 0.032.

For the sequence GGTCCGCATA, the switch fluorescence ratio is 2.82 ± 1.2.

As to GAAGATGGTT, the switch fluorescence ratio was 0.969 ± 0.018.

As for AAATGTTTGT, the switch fluorescence ratio amounted to 1.006 ± 0.0099.

Regarding GCTGGGGGGA, the switch fluorescence ratio stood at 0.981 ± 0.033.

For ACGATGATGT, the switch fluorescence ratio amounted to 1.0279 ± 0.00059.

For the sequence GGATCCAAAT, the switch fluorescence ratio is 0.947 ± 0.017.

Regarding CTAGGGTTCT, the switch fluorescence ratio was 1.03 ± 0.019.

As to TTTGGTTATA, the switch fluorescence ratio was 1 ± 0.012.

CCTCGGGGGT: the switch fluorescence ratio worked out at 1.02 ± 0.04.

Regarding ATGCGGACAG, the switch fluorescence ratio turned out to be 1.011 ± 0.0083.

Turning to CATAATAC, the switch fluorescence ratio stood at 1.82 ± 0.4.

In the case of AGCTCAGGGA, the switch fluorescence ratio was determined as 1.04 ± 0.027.

Turning to GGTTTCGACG, the switch fluorescence ratio stood at 1.01 ± 0.011.

Turning to CGCTTCATTA, the switch fluorescence ratio was 1.01 ± 0.063.

On to GTTGGACCAA, for which the switch fluorescence ratio came to 1.021 ± 0.0027.

Consider CAAGTTGATG, for which the switch fluorescence ratio stood at 0.982 ± 0.057.

In the case of CCTTGGCTTT, the switch fluorescence ratio stood at 1.53 ± 0.11.

GCTTGAGGTA: the switch fluorescence ratio turned out to be 1.02 ± 0.054.

For CAAACTGGCA, the switch fluorescence ratio stood at 1.05 ± 0.045.

As to CAGGGGTTA, the switch fluorescence ratio turned out to be 1.03 ± 0.044.

For the sequence TCGGGATTTA, the switch fluorescence ratio was found to be 1.02 ± 0.033.

Regarding TTTTTCTTCA, the switch fluorescence ratio amounted to 1 ± 0.011.

As for GGATTTCTTA, the switch fluorescence ratio amounted to 1 ± 0.025.

In the case of TTGTGGGGCC, the switch fluorescence ratio is 1 ± 0.029.

As to CCCCGGATTT, the switch fluorescence ratio amounted to 1.09 ± 0.098.

With GATACTCTTA, the switch fluorescence ratio worked out at 1.021 ± 0.0081.

In the case of GACGTTGTGG, the switch fluorescence ratio was determined as 1.03 ± 0.014.

GTTGGAGGGG: the switch fluorescence ratio worked out at 0.985 ± 0.03.

With TGAGGGGGG, the switch fluorescence ratio came to 1.01 ± 0.022.

For TGCGGCAATT, the switch fluorescence ratio stood at 1.09 ± 0.012.

Take ATATTTTTTG: the switch fluorescence ratio turned out to be 0.978 ± 0.024.

For CCACTATTCT, the switch fluorescence ratio was 1.001 ± 0.0062.

For the sequence ACTTTGGGGG, the switch fluorescence ratio was 1.01 ± 0.042.

Turning to GCCTCGTTGG, the switch fluorescence ratio turned out to be 0.98 ± 0.012.

Consider CGGCTTAAGT, for which the switch fluorescence ratio was found to be 1.01 ± 0.035.

As to CATTTTGTAG, the switch fluorescence ratio worked out at 1.039 ± 0.0043.

For the sequence ACTCTACCGT, the switch fluorescence ratio was 1.29 ± 0.057.

As for AGGCTGTTTT, the switch fluorescence ratio turned out to be 1.02 ± 0.016.

Take TCCTTGACTT: the switch fluorescence ratio is 1.15 ± 0.26.

In the case of CTAGGTTTTG, the switch fluorescence ratio stood at 0.995 ± 0.047.

Take TGACGCAAGG: the switch fluorescence ratio is 2.8 ± 0.093.

For AAATTTTGTT, the switch fluorescence ratio worked out at 0.987 ± 0.021.

With TTAATGACTT, the switch fluorescence ratio worked out at 1.02 ± 0.058.

As for CTCTGTTGTG, the switch fluorescence ratio turned out to be 0.961 ± 0.012.

For the sequence GGCGCAGCAA, the switch fluorescence ratio stood at 1.47 ± 0.091.

As for AACCTGGTCG, the switch fluorescence ratio stood at 1.069 ± 0.0046.

For the sequence AGGGGCTTCT, the switch fluorescence ratio came out at 1.06 ± 0.028.

In the case of GGGCAGAGGA, the switch fluorescence ratio is 1.0929 ± 0.00017.

Regarding GTGGGTTGGG, the switch fluorescence ratio was found to be 1.09 ± 0.058.

With TTGAACGCGG, the switch fluorescence ratio is 1.05 ± 0.018.

As for TAAAGGATTC, the switch fluorescence ratio amounted to 0.979 ± 0.045.

CTTTCAAGGT: the switch fluorescence ratio was determined as 1.006 ± 0.0032.

The values are drawn from the supplement of paper PMC10126150.
